Measurements as given in patent US5143839A, “Assay of endopeptidases and novel purified bacterial enzyme” (Ramot Ltd., priority 1989, dated 1992).

Assays:
[1] = substrate: CC(C)C[C@H](NC(=O)[C@H](C)NC(=O)[C@H](C)NC(=O)CCC(=O)O)C(=O)Nc1ccc([N+](=O)[O-])cc1; test: Kinetic parameters of hydrolysis of Suc-Ala-Ala-Leu-NH-Np (Lineweaver-Burk); type: biochemical, bovine; conditions: other: (S) range 0.04-4.0 mM, 10 mM CaCl2, pH 7.5, 25° C., enzyme 2.2×10^-9 M
Protocol: (§1) Neutral endopeptidase and neutral proteinase activities were assayed by the two-stage assay using the synthetic substrate Suc-Ala-Ala-Leu-NH-Np supplemented with Streptomyces griseus aminopeptidase, usually 6-7 μg/ml. Assays were performed in 0.1M NaCl-0.05M Tris.HCl, pH 7.5 at 25° C., unless otherwise stated, with or without 0.01M CaCl2. Assay volume was 1 ml or 2.5 ml when using a Varian Techtron spectrophotometer or 0.2 ml at 23° C. when performed with microplates (Munc Immuno Plate II F) using a Kinetic Microplate Reader (Molecular Devices Corp.). Activity was measured by following the increase in absorbance at 405 nm, due to the release of 4-nitroaniline, E405 =10,600M^-1 cm^-1 [14 ]. Molar concentration of thermolysin was estimated using A280 1% =17.65 [15] and molecular mass of 34,600 Da; molar concentration of bovine kidney neutral endopeptidase by protein determination and molecular mass of 90 kDa, deduced from SDS PAGE. Both endopeptidase 24.11 from bovine kidney and thermolysin cleave the Ala-Leu bond of the compound at a very fast rate (Table 3). […]
(§2) Reactions were carried out in the presence of 10 mM CaCl2 at pH 7.5, 25° C. […] Values of kcat and Km were determined by Lineweaver-Burk plots.

[2] = substrate: CC(C)C[C@H](NC(=O)[C@H](C)NC(=O)[C@H](C)NC(=O)CCC(=O)O)C(=O)Nc1ccc([N+](=O)[O-])cc1; test: as above; type: biochemical; conditions: other: (S) range 0.4-4.0 mM, 10 mM CaCl2, pH 7.5, 25° C., enzyme 3.0×10^-10 M
Protocol: as §1, with “3). The Leu residue of the substrate interacts with the major hydrophobic specificity sites of the enzymes (S'1), whereas the two Ala residues interact with additional subsites (S1, S2), thereby contributing to catalysis and/or binding. Even the 4-nitroaniline leaving group probably interacts with the enzyme at subsite S'2. Previously reported assays of endopeptidase 24.11 usually utilized a hydrophobic Phe residue, but Leu seems preferable in reaching higher kcat values. The rapid hydrolysis of the Leu residue is also preferable for the present two-stage assay utilizing Steptomyces aminopeptidase, since this enzyme very rapidly hydrolyzes the product of the endopeptidase attack, Leu-NH-Np.” for “3).”
as §2

Protein	Km [1] [µM]	kcat [1] [s⁻¹]	Km [2] [µM]	kcat [2] [s⁻¹]	kcat/Km [2] [M^-1 s^-1 × 10^-6]
bovine kidney neutral endopeptidase 24.11 (Bos taurus) (protein, Endopeptidase 24.11 from bovine kidney was purified by Triton X-100 extraction; from tissue; host or cells: bovine kidney) MGRSESQMDITDINTPKPKKKQRWTPLEISLSVLVLLLTIIAVTMIALYATYDDGICKSSECIKSAARLIQNMDATVEPCTDFFKYACGGWLKRNVIPETSSRYSNFDILRDELEVVLKDVLQEPKTEDIIAVQKAKMLYRSCINETAIESRGGEPLLRLLPDIYDWPVALENWEQKYGSSWTAEKSIAQLNSKYGKKVIINFFVGTDDKNSTNHIIHIDQPQLGLPSRDYYECTAAYKEACTAYVDFMISVAKLIRQERGLPIDENQLSLEMNKVMDLEKEIANATTKSEDRNDPMLLYNKMTLAEVQNKFSLEFSGKPFSWSNFTNEIMSTVNINIPHEEEVIVYAPEYLTNLKLILAKYSARDLQNLMSWRFIMDLVSSLSRNYKESRNAFRKALYGTTSETATWRRCANYVNGNMENAVGRLYVEAAFPGDSKHVVEDLIAQIRAVFIQTLDDLTWMDAETKKKAEEKALAIKERIGYPDDIISNDDKLNKEYLELSYQEEEYFENIIQNLKFGQNRQLKKLREKVDKDEWISGAAVVNAFYSSGRNQIVFPAGILQPPFFSAQQPKSLNYGGIGMVIGHEITHGFDDNGRNFNKDGDLVDWWTQQSANNFKDLSQCMVYQYGNFSWDLANGQHLNGINTLGENIADNGGIGQAYRAYQNYVKKHGEEKLLPGLDLNHRQLFFLNFAQVWCGTYRTEYALNSIKTDVHSPGNFRIIGTLQNSPQFSEAFHCRKNSYMNPEKKCRVW	150	120	–	–	–
Thermolysin (Bacillus thermoproteolyticus) (protein) ITGTSTVGVGRGVLGDQKNINTTYSTYYYLQDNTRGNGIFTYDAKYRTTLPGSLWADADNQFFASYDAPAVDAHYYAGVTYDYYKNVHNRLSYDGNNAAIRSSVHYSQGYNNAFWNGSQMVYGDGDGQTFIPLSGGIDVVAHELTHAVTDYTAGLIYQNESGAINEAISDIFGTLVEFYANKNPDWEIGEDVYTPGISGDSLRSMSDPAKYGDPDHYSKRYTGTQDNGGVHINSGIINKAAYLISQGGTHYGVSVVGIGRDKLGKIFYRALTQYLTPTSNFSQLRAAAVQSATDLYGSTSQEVASVKQAFDAVGVK	–	–	4200	1200	0.29
